These results are taken from patent US20040005550A1, “Methods and compositions useful for targeting activated vitronectin receptor alphavbeta3” (The Scripps Research Institute, priority 1998, published 2004).

The target of experiment [1] is T1, αvβ3 expressed in CHO cells (Homo sapiens, UniProt P05106+P06756).
T1 construct: cDNAs encoding full-length human αv and β3 were subcloned into pcDNA3 and pCDM8; expressed in transfected cells
In words: Flow cytometry ligand binding to αvβ3-CHO cells. Particulars: for Bmax: arbitrary fluorescence units. On the procedure: Binding of aPB, WOW-1 Fab and FITC-fibrinogen to cells was assessed by flow cytometry. Typically, cells were cultured overnight in low serum medium (e.g., 0.5% fetal bovine serum), resuspended in incubation buffer at 1-1.5×10^7 cells/ml, and 4-6×10^5 cells were incubated with one of these ligands for 30 min at room temperature in a final volume of 50 μl. […] In some experiments, ligand binding and αvβ3 expression were measured simultaneously by incubation of cells with ligands in the presence of biotin-SSA6 (7 μg/ml), a non-function-blocking anti-β3 monoclonal antibody (Abrams, C., Deng, J., Steiner, B., and Shattil, S. J. (1994) J. Biol. Chem. 269, 18781-18788). After 30 min at room temperature, cells were washed and incubated with phycoerythrin-streptavidin (1:25 final dilution; Molecular Probes) for 20 min on ice. In the case of WOW-1 Fab, an Alexa-conjugated anti-(His)6 monoclonal antibody (Accurate Chemical and Scientific Corp., Westbury, N.Y.) was added at this stage (50 μg/ml). Cells were washed and resuspended in 0.5 ml incubation buffer containing 2 μg/ml propidium iodide (Sigma, St. Louis, Mo.). Ligand binding (FL1 channel) was analyzed immediately on the gated subset of live cells (propidium iodide-negative, FL3) that was strongly positive for αvβ3 expression (FL2). Binding isotherms were subjected to non-linear, least squares regression analysis using an equation for one-site binding (Prism 2.0 software; GraphPad Software, San Diego, Calif.). Two-tailed P values for paired samples were obtained by Student's t test.
In order to document and study the significance of affinity modulation of αvβ3, a monovalent reporter ligand was developed analogous to the activation-dependent anti-αIIbβ3 antibody, PAC1 Fab. Preliminary binding studies were conducted with the new antibody, designated WOW-1 Fab, using purified integrins in the presence of 50 μM MnCl2, which activates integrins by a direct effect on the extracellular domain (Bazzoni, G., and Hemler, M. E. (1998) Trends Biochem. Sci. 23, 30-34). […] To determine if WOW-1 Fab reacted preferentially with activated αvβ3 in cells, Fab binding was compared with that of multivalent penton base using CHO cells stably-transfected with human αvβ3 (αvβ3-CHO cells).
A general note: Flow cytometry measures light scatter and fluorescence of single cells or particles in a stream.

Experiment [2] deals with resting or thrombin-stimulated human platelets. Kind of experiment: Flow cytometry ligand binding to platelets.
For a further experiment, the system named is αvβ3-CHO cells. In words: Cell adhesion assay on immobilized penton base. It counts as cell-based. How it is done:
Immulon-2 microtiter wells (Dynex Laboratories, Chantilly, Va.) were coated with unlabeled penton base (1-100 ng/well) overnight at 4° C., followed by blocking with 20 mg/ml BSA. CHO cells stably expressing αvβ3 were labeled with BCECF-AM (Molecular Probes, Eugene, Oreg.), and cell adhesion to the immobilized penton base was quantitated by cytofluorimetry at 485/530 nm (Hato, T., Pampori, N., and Shattil, S. J. (1998) J. Cell Biol. 141(7), 1685-1695).
In order to determine whether changes in receptor affinity affect the adhesive function of αvβ3, the adhesion of αvβ3-CHO cells to immobilized penton base was quantitated. Adhesion was dependent on the coating concentration of penton base and was half-maximal at 30-40 ng/well (FIG. 7). Activation of αvβ3 by AP5 led to a 7-fold leftward shift in the dose-response curve such that half-maximal adhesion now occurred at approximately 5 ng of penton base/well. Treatment of the cells with 1 mM MnCl2 caused an even further shift in the dose-response curve, either because it induced a more profound effect on αvβ3 or it activated additional αv integrins (FIG. 7). […] Thus, affinity modulation of αvβ3 promotes both cell adhesion and post-ligand binding responses, such as cell spreading.

T1 sequence (P06756 31-889 limits assumed): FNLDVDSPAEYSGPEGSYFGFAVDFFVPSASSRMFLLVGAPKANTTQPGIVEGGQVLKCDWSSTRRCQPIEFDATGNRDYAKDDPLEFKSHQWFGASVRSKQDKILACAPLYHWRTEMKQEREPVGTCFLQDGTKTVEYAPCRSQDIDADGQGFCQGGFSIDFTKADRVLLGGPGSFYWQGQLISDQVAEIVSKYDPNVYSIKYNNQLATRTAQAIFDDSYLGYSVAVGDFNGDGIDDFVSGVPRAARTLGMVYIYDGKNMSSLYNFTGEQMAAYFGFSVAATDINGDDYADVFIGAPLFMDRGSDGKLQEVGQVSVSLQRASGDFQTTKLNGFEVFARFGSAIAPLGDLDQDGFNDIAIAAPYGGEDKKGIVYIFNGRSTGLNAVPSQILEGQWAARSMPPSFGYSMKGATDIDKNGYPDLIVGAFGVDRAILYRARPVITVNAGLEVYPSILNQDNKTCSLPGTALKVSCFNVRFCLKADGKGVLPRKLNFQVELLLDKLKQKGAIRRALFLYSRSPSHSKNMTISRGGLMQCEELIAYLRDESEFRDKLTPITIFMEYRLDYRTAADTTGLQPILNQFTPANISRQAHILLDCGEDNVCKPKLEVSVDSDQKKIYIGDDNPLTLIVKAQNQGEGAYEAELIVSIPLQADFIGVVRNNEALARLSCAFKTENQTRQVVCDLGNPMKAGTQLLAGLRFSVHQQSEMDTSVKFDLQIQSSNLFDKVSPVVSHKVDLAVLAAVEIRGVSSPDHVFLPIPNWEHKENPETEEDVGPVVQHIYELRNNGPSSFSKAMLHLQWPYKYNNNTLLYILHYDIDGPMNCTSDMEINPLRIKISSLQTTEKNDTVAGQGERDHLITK
T1 sequence (P06756 891-1048 partner limits assumed): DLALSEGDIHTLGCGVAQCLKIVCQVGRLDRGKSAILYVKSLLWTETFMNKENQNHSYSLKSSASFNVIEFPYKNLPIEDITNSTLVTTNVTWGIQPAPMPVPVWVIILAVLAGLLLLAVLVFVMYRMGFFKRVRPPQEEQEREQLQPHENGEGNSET
T1 sequence (P05106 27-788): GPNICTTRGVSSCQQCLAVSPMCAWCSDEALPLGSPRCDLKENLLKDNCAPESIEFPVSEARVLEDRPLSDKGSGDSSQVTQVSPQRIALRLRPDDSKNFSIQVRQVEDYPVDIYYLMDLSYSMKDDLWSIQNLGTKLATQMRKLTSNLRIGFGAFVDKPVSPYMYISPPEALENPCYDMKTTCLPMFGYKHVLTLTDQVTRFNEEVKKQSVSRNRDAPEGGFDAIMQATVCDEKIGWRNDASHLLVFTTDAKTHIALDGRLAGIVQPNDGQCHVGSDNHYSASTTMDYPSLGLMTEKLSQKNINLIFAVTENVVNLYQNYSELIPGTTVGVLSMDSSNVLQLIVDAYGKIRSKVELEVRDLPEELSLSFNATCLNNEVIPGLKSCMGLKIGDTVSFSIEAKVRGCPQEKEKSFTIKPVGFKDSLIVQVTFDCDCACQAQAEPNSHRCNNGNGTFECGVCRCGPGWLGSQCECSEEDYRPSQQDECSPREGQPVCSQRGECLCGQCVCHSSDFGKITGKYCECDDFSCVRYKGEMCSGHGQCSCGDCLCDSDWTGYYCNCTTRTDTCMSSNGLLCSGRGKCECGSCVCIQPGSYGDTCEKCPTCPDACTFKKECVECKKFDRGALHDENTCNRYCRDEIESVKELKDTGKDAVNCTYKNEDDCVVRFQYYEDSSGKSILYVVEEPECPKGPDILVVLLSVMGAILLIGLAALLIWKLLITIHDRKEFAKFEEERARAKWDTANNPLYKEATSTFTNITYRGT

As to “aPB: Penton base conjugated to Alexa-488”, the “aPB binding on a per receptor basis (mfi of aPB binding divided by mfi of SSA6 binding)” value in experiment [1] (AP5-treated αvβ3-CHO cells, 75 nM aPB) was determined as 0.034±0.002. Further, the binding to platelets result in experiment [2] is listed as “neither aPB nor WOW-1 Fab bound detectably”.
Take “Fibrinogen: Purified human fibrinogen labeled with FITC”: the Bmax in experiment [1] (Activating antibody AP5) stood at 77 ± 6 units; in experiment [1] (No Treatment), 126 ± 74 units. In addition, in experiment [1] (unstimulated αvβ3-CHO cells), the “affinity/avidity of αvβ3 for ligand, fold lower than that for aPB” value is given as “approximately 15 fold”.
On to “Penton Base: Recombinant multivalent penton base coat protein from adenovirus type 2, baculovirus-expressed”, for which the Bmax was 69 ± 5 units in experiment [1] (Activating antibody AP5) and 80 ± 4 units in experiment [1] (No Treatment). For the same substance, the “coating concentration at half-maximal adhesion” value with αvβ3-CHO cells (no additive, 90 min at 37° C.) is listed as 30-40 ng/well. For the same substance, in the experiment with αvβ3-CHO cells (αvβ3 activated by AP5), the “coating amount at half-maximal adhesion” value is on record as “approximately 5 ng of penton base/well”.
